In test [1] the target is α-synuclein (human) (UniProt P37840).
Test [2] shares this target. This is another data set of the same source.
The target is the same in test [3]. This is another data set of the same source.
Test [4] shares this target. This is another data set of the same source.

Consider “DNAJB6b (from UniProt O75190-2 1-241) (natural protein)”, for which, in the test with α-synuclein (human) [1], the apparent solubility of α-syn (free monomer in supernatant by HPLC-MS) with 0.12 and 2 μM JB6, pH 4.5 came out at 2.3 μM. For the same substance, in the test with α-synuclein (human) [2], the apparent solubility of α-syn (free monomer in supernatant by HPLC-MS) with 7.8 to 62.5 nM JB6, pH 5.5 (0.8 μM for α-syn alone; 125 nM JB6 not at equilibrium, 16 μM) came to 7.7 μM. In addition, the apparent solubility of α-syn (free monomer by 1D 1H NMR at about 300 h) with 250 nM JB6, pH 5.5 with α-synuclein (human) [3] amounted to 0.47 μM. In the test with α-synuclein (human) [4], the half-time of loss of free α-syn monomer by 1D 1H NMR, 20 μM α-syn with 250 nM JB6 (4.9 h without JB6), pH 5.5, 37 °C is 35 h.

(Values after article PMC12100659.)
